In the RNAGym collection of RNA variant scans (doi:10.1073/pnas.2313332121):
Fewer inactive variants are shown than the library holds.

B1: TPR 5TU (parent)
chain: GGAUCUUCUCGAUCUAACAAAAAAGACAAAUCUGCCACAAAGCUUGAGAGCAUCUUCGGAUGCAGAGGCGGCAGCCUUCGGUGGCGCGAUAGCGCCAACGUUCUCAACUAUGACACGCAAAACGCGUGCUCCGUUGAAUGGAGUUUAUCAUG

Variants of: B1
Experiment: polymerase ribozyme fitness, log enrichment relative to wild type (log ratio); higher = more active; in vitro selection for triplet polymerase activity
Summary of the method: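 Each subunit of a heterodimeric triplet polymerase ribozyme was mutagenized into a library by PCR, transcribed, and subjected to one round of in vitro selection, run in triplicate. Libraries were annealed with a biotinylated primer, the partner subunit and triplets, incubated frozen at −7 °C, and extended constructs were gel-excised, captured on streptavidin beads and recovered by RT-PCR. Input and output libraries were sequenced on Illumina, keeping genotypes with ≥10 input reads and ≥1 read per output. Fitness is log base 2 of genotype enrichment divided by wild-type enrichment, from inverse-variance-weighted replicate averages.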

Variant	polymerase ribozyme fitness (log ratio)
GGAUCUUCUCGAUCUAACAAAAAAGACAAAUCUGACACAAAGCUUGAGAGCAUCUUCGGAUGCAGAGGCGGCAGCCUUCGGUGGCGCGAUAGCGCCAGCGUUCUCAACUAUGACACGCAAAACGCGUGCUCCGUUGAAUGGAGUUUAUCAUG [C35A A98G]	-3.17
GGAUCUUCUCGAUCUAACAAAAAAGACAAAUCUGACACAAAGCUUGAGAGCAUCUUCGGAUGCAGAGGCGGCAGCCUUCGGUGGCGCGAUAGCGCCAUCGUUCUCAUCUAUGACACGCAAAACGCGUGCUCCGUUGUAUGGAGUUUAUCAUG [C35A A98U A107U A137U]	≤ -4.2
GGAUCUUCUCGAUCUAACAAAAAAGACAAAUCUGACACAAAGCUUGAGAGCAUCUUCGGAUGCAGCGGCGGCAGCCUUCGGUGGCGCGAUAGCGCCAACGUUCGCAACUAUGACACGCAAAACGCGUGCUCCGUUGAAUGGAGUUUAUCAUG [C35A A66C U104G]	≤ -4.2
GGAUCUUCUCGAUCUAACAAAAAAGACAAAUCUGACACAAAGCUUGAGAGCAUCUUCGGAUGCAGAGGCGGCAGCCUUUGGUGGCGCGAUAGCGCCAAUGUUUUCAACUAUGACACGCAAAACGCGUGCUCCGUUGAAUGGAGUUUAUCAUG [C35A C79U C99U C103U]	≤ -4.2
GGAUCUUCUCGAUCUAACAAAAAAGACAAAUCUGACACAAAGCUUGAGAGCAUCUACGGAUGCAGAGGCGGCAGCCUUCGGUGGCGCGAUAGCGCCAACGUGCUAAACUAUGACACGCAAAACGCGUGCUCCGUUGAAUGGAGUUUAUCAUA [C35A U56A U102G C105A G152A]	≤ -4.2
GGAUCUUCUCGAUCUAACAAAAAAGACAAAUCUGACACAAAGCUUGAGAGCAUCUUCGGAUGCAGAGGCGGCAGCCUUCCGUGGCGCAAUAGCGCCAACGUUUUCAACUGUGACACGCAAAACGCGUGCUCCGUUGAAUGGAGUUUAUAAUG [C35A G80C G88A C103U A110G C149A]	≤ -4.2
GGAUCUUCUCGAUCUAACAAAAAAGACAAAUCUGGCACAAAGCUUGAGAGCAUCUUCGGAUGCAGAGGCGGCAGCCUUCGGUCGCGCGAUAGCGCCAACGUUCUCAACUAUGACACGCAAAACGCGUGCUCCGUUGAAUGGAGUUUAUCAUG [C35G G83C]	-4.19
GGAUCUUCUCGAUCUAACAAAAAAGACAAAUCUGACACAAAGCUUGAGAGCAUCUUCGGAUGCAGAGGCGGCAGCCUUCGGUCGCGCGAUAGCGCCAACGUUCUCAACUAUGAAACGCAAAACGCGUGCUCCGUUGAAUGGAGUUUAUCAUG [C35A G83C C114A]	≤ -4.2
GGAUCUUCUCGAUCUAACAAAAAAGACAAAUCUGGCACAAAGCUUGAUAGCAUCUUUGGAUGCAGAGGCGGCAGCCUUCGGUGGCGCGAUAGCGCCAACGUUCUCAACUUUGACAUGCAAAACGCGUGCUCCGUUGACUGGAGUUUAUCAUG [C35G G48U C57U A110U C116U A138C]	≤ -4.2
GGAUCUUCUCGAUCUAACAAAAAAGACAAAUCUGACACAAAGCUUGAGAGCAUCUUCGGAUGCAGAGGCGGUAGCCUUCGGUGGCGCGAUAGCGCCAACGUUCUCAACUAUGACACGAAAAACGCCUGCUCCGUUGAAUGGAGUUUAUCAUG [C35A C72U C118A G126C]	≤ -4.2
GGAUCUUCUCGAUCUAACAAAAAAGACAAAUCUGGCACAAAGCUUGAGAGCAUCUUCGGAUGCAGAGGCGGCAGCCUUCGGUGGCGCGAUAGCGGCAACGUUCUCAACUAUGACACGCAAAACGCGUGCUCCGUUGAAUGGAGUUUAUCAUG [C35G C95G]	-4.19
GGAUCUUCUCGAUCUAACAAAAAAGACAAAUCUGACACAAAGCUUGAGAGCAUCUUCGGAUGCAAAGGCGGCAGCCUUCGGUGGCGCGAUAGCGCCAACGUUCUCAACUAUGACACGCAAAACGCGUGCUCCGUUGAAUGGAGCUUAUCAUG [C35A G65A U144C]	≤ -4.2
GGAUCUUCUCGAUCUAACAAAAAAGACAAAUCUGGCACAAAGCUUGAGAGCAUCUUCGGAUGCAGAGGCGGCAGCCUUCGGUGGUGCGAUAGCGCCAACGUUCUCAACUAUGACACGCAAAACGCGUGCUCCGUUGAAUGGAGUUUAUCAUG [C35G C85U]	≤ -4.2
GGAUCUUCUCGAUCUAACAAAAAAGACAAAUCUGGCACAAAGCUUGAGAGCAUCUUCGGAUGCAGAGGCGGCAGCCUUCGGUGGCGCGAUAGCUCCUACGUUCUCAACUAUGACACGCAAAACGCGUGCUCCGUUGAAUGGAGUUUAUCAUG [C35G G94U A97U]	-4.17
GGAUCUUCUCGAUCUAACAAAAAAGACAAAUCUGACACAAAGCUUGAGAGCAUCUUCGGAUGCAGAGGCGGCAGCCUUCGGUGGCGCGAUAGCCCCAACGUUCUCGACUAUGACACGCAAAACGCGUGCUCCGUUGAAUGGAGUUUAUCAUG [C35A G94C A106G]	-3.77
GGAUCUUCUCGAUCUAACAAAAAAGACAAAUCUGGCACAAAGCUUGCGAGCAUCUUCGGAUGCAGACGCGGCAGCCUUCGGUGGCGCGAUCGCGCCAACGUUGUCAACUAUGACACGCAAAACGCGUGCUCCGUUGAAUGGAGUUUAUCAUG [C35G A47C G67C A91C C103G]	≤ -4.2
GGAUCUUCUCGAUCUAACAAAAAAGACAAAUCUGGCACAAAGCUUGAGAGCAUCUUCGGAUGCAGAGGCAGCAGCCUUCGGUGGCGGGAUAGCGCCAACGUUCUCAACCAUGACACGCAAAACGCGUGCUCCGUUGAAUGGAGUUUAUCAUG [C35G G70A C87G U109C]	≤ -4.2
GGAUCUUCUCGAUCUAACAAAAAAGACAAAUCUGACACAAAGCUUGAGAGCAUCAUCGGAUGCAGAGGCGGCAGCCUUCGGUGGCGCGAUAGCGCCAACGUUCUCAACUAUGACACGCAAAACGCGUGCUCCGUUGAAUGGAGUUUAUCAUG [C35A U55A]	-2.64
GGAUCUUCUCGAUCUAACAAAAAAGACAAAUCUGGCACAAUGCUUGAGAGCAUCUUCGGAUGCAGAGGCGGCAGCCUUCGGUGGCGCGAUAGCGCCAACGUUCUCAACUAUGACACGCAAAACGCGUGCUCCGUUUAAUGAAGUUUAUCAUG [C35G A41U G136U G141A]	≤ -4.2
